Source: publication doi:10.1101/2024.04.22.590616

T1: Csm2;Psy3;Shu1;Shu2 (Saccharomyces cerevisiae?;Saccharomyces …, UniProt P40465;Q12318;P38751;P38957 1-213;1-242;1-150;1-223, |||)
T1 sequence 1: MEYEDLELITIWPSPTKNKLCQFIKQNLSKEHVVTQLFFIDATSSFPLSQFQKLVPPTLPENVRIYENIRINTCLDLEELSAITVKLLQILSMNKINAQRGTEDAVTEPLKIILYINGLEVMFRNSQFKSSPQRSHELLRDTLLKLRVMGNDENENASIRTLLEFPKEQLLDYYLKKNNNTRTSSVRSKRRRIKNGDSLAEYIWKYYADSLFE
T1 sequence 2: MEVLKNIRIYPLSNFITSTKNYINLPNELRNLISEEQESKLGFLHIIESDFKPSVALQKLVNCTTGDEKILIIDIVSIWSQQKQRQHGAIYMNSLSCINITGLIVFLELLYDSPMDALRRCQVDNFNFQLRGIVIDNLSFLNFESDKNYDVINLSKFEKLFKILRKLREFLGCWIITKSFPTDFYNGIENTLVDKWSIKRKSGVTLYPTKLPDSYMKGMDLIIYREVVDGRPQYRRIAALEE
T1 sequence 3: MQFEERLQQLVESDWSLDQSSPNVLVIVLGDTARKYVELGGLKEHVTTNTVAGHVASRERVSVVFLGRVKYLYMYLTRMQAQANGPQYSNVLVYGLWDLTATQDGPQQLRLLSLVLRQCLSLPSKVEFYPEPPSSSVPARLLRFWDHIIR
T1 sequence 4: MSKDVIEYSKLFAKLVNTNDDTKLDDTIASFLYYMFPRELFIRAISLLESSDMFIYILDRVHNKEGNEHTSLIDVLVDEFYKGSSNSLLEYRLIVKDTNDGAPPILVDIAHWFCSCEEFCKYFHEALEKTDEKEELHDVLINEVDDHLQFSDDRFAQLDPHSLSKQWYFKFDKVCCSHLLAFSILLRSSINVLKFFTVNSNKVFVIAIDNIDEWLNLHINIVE

T2: Csm2;Psy3 (Saccharomyces cerevisiae?;Saccharomyces …, UniProt P40465;Q12318 1-213;1-242, |)
T2 sequence 1: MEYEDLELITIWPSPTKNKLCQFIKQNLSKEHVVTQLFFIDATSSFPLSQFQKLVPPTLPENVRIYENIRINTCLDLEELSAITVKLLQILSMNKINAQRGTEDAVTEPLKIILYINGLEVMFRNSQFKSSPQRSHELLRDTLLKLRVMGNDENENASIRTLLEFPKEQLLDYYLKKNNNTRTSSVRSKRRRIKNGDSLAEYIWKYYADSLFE
T2 sequence 2: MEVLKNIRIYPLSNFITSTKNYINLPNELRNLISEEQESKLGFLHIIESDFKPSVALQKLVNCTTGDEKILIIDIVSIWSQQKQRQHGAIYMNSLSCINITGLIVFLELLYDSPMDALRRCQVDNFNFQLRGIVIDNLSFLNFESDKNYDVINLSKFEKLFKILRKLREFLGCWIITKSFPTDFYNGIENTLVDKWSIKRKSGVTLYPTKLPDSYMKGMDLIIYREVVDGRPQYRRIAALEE

B1: Fork (5nt) (dsDNA)
DNA 1: ACTGCCCTTACAGCACAGCGGTTTTT
DNA 2: TTTTTCCGCTGTGCTGTAAGGGCAGT
B2: Fork (20nt) (dsDNA)
DNA 1: TTTTTTTTTTTTTTTTTTTTCTTGACAAGCTTGCGCACT
DNA 2: AGTGCGCAAGCTTGTCAAGGCACTTTTTTTTTTTTTTTT
B3: 3'-overhang (20nt) (dsDNA)
DNA 1: CTTGACAAGCTTGCGCACT
DNA 2: AGTGCGCAAGCTTGTCAAGGCACTTTTTTTTTTTTTTTT
B4: 5'-overhang (20nt) (dsDNA)
DNA 1: TTTTTTTTTTTTTTTTTTTTCTTGACAAGCTTGCGCACT
DNA 2: AGTGCGCAAGCTTGTCAAG
B5: Fork (10nt) (dsDNA)
DNA 1: ACTGCCCTTACAGCACAGCGGTTTTTTTTTT
DNA 2: TTTTTTTTTTCCGCTGTGCTGTAAGGGCAGT
B6: 3'-overhang (10nt) (dsDNA)
DNA 1: ACTGCCCTTACAGCACAGCGGTTTTTTTTTT
DNA 2: CCGCTGTGCTGTAAGGGCAGT
B7: ds21 (dsDNA)
DNA 1: ACTTACAGCACAGCGGTTTTT
DNA 2: AAAAACCGCTGTGCTGTAAGT
B8: ds26 (dsDNA)
DNA 1: ACTGCCCTTACAGCACAGCGGTTTTT
DNA 2: AAAAACCGCTGTGCTGTAAGGGCAGT
B9: ss60 (ssDNA)
DNA: TTTTTTTTTTTTTTTTTTTTTTTTTTTTTTCTTGACAAGCTTGCGCACTTAGGCCTCTAG
B10: 3'-overhang (5nt) (dsDNA)
DNA 1: ACTGCCCTTACAGCACAGCGGTTTTT
DNA 2: CCGCTGTGCTGTAAGGGCAGT
B11: ds39 (dsDNA)
DNA 1: TTTTTTTTTTTTTTTTTTTTCTTGACAAGCTTGCGCACT
DNA 2: AGTGCGCAAGCTTGTCAAGAAAAAAAAAAAAAAAAAAAA

Target: T1, Csm2;Psy3;Shu1;Shu2
Test: fluorescence polarization

Row | Binder | Kd [µM]
1 | B1 | 4.08 ± 0.19
2 | B2 | 2.06 ± 0.13
3 | B3 | 2.82 ± 0.19
4 | TTTTTTTTTTTTTTTTTTTTCTTGACAAGCTTGCGCACT (ssDNA) [ss39] | 2.76 ± 0.08
5 | B4 | 2.44 ± 0.2
6 | B5 | 5.84 ± 0.32
7 | ACTGCCCTTACAGCACAGCGGTTTTTTTTTT (ssDNA) [ss31] | 3.31 ± 0.07
8 | B6 | 4.5 ± 0.12
9 | B7 | 6.21 ± 0.19
10 | ACTGCCCTTACAGCACAGCGGTTTTT (ssDNA) [ss26] | 3.54 ± 0.24
11 | B8 | 7.23 ± 0.14
12 | B9 | 2.37 ± 0.13
13 | B10 | 4.86 ± 0.28
14 | ACTTACAGCACAGCGGTTTTT (ssDNA) [ss21] | 3.43 ± 0.16

Target: T2, Csm2;Psy3
Test: fluorescence polarization

Row | Binder | Kd [µM]
15 | B2 | 1.35 ± 0.06
16 | B3 | 1.92 ± 0.28
17 | B11 | 1.49 ± 0.13
18 | TTTTTTTTTTTTTTTTTTTTCTTGACAAGCTTGCGCACT (ssDNA) [ss39] | 1.65 ± 0.18
19 | B4 | 1.18 ± 0.1

Target: T1, Csm2;Psy3;Shu1;Shu2
Test: fluorescence polarization
Remark: another data set of the same source

Row | Binder | Kd [µM]
20 | B2 | 0.86 ± 0.07
21 | B3 | 2.53 ± 0.17
22 | B11 | 6.85 ± 0.49
23 | TTTTTTTTTTTTTTTTTTTTCTTGACAAGCTTGCGCACT (ssDNA) [ss39] | 3.19 ± 0.27
24 | B4 | 1.58 ± 0.16
25 | B9 | 2.4 ± 0.23

Target: T2, Csm2;Psy3
Test: fluorescence polarization
Remark: another data set of the same source

Row | Binder | Kd [µM]
26 | B2 | 0.74 ± 0.05
27 | B3 | 1.6 ± 0.13
28 | B11 | 1.54 ± 0.08
29 | TTTTTTTTTTTTTTTTTTTTCTTGACAAGCTTGCGCACT (ssDNA) [ss39] | 1.49 ± 0.18
30 | B4 | 0.43 ± 0.07

Target: T1, Csm2;Psy3;Shu1;Shu2
Test: fluorescence polarization
Remark: another data set of the same source

Row | Binder | Kd [µM]
31 | B2 | 1.03 ± 0.12
32 | B11 | 7.41 ± 0.61
33 | TTTTTTTTTTTTTTTTTTTTCTTGACAAGCTTGCGCACT (ssDNA) [ss39] | 2.77 ± 0.25
34 | B4 | 1.15 ± 0.11
35 | B9 | 2.37 ± 0.29

Target: T2, Csm2;Psy3
Test: fluorescence polarization
Remark: another data set of the same source

Row | Binder | Kd [µM]
36 | B2 | 0.75 ± 0.07
37 | B3 | 1.27 ± 0.12
38 | B11 | 1.45 ± 0.13
39 | TTTTTTTTTTTTTTTTTTTTCTTGACAAGCTTGCGCACT (ssDNA) [ss39] | 1.32 ± 0.12
40 | B4 | 0.95 ± 0.12

Target: T1, Csm2;Psy3;Shu1;Shu2
Test: fluorescence polarization
Remark: another data set of the same source

Row | Binder | Kd [µM]
41 | B2 | 0.97 ± 0.1
42 | B3 | 2.71 ± 0.22
43 | B11 | 5.8 ± 0.4
44 | TTTTTTTTTTTTTTTTTTTTCTTGACAAGCTTGCGCACT (ssDNA) [ss39] | 2.37 ± 0.22
45 | B4 | 2.42 ± 0.22
46 | B9 | 2.01 ± 0.26

Target: T2, Csm2;Psy3
Test: fluorescence polarization
Remark: another data set of the same source

Row | Binder | Kd [µM]
47 | B2 | 0.78 ± 0.05
48 | B3 | 0.68 ± 0.05
49 | B11 | 1.46 ± 0.12
50 | TTTTTTTTTTTTTTTTTTTTCTTGACAAGCTTGCGCACT (ssDNA) [ss39] | 1.98 ± 0.2
51 | B4 | 0.76 ± 0.09

Target: T1, Csm2;Psy3;Shu1;Shu2
Test: fluorescence polarization
Remark: another data set of the same source

Row | Binder | Kd [µM]
52 | B11 | 7.4 ± 0.51
